Experimental data from publication PMC5957534.

Key:
Test in all cases: DNA electrochemistry
StXPB1 = target: T1, StXPB1 (Sulfolobus tokodaii, UniProt Q971U1 1-543)
T1 sequence: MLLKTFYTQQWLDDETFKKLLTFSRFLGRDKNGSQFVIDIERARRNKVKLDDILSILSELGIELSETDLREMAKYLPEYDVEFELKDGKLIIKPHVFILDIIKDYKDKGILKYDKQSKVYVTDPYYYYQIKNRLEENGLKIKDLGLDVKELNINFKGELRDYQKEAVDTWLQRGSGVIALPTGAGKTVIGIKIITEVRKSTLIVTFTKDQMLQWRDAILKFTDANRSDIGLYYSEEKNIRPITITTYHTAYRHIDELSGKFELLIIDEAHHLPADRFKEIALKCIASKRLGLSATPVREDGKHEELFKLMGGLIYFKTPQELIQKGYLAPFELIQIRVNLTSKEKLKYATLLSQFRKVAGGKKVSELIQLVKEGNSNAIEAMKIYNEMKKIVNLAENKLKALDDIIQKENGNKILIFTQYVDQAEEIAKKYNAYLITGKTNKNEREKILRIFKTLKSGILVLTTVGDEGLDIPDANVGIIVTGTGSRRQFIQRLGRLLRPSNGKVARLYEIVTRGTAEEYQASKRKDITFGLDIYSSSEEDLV

StXPB2 = target: T2, StXPB2 (Sulfolobus tokodaii, UniProt Q970I2 1-439)
T2 sequence: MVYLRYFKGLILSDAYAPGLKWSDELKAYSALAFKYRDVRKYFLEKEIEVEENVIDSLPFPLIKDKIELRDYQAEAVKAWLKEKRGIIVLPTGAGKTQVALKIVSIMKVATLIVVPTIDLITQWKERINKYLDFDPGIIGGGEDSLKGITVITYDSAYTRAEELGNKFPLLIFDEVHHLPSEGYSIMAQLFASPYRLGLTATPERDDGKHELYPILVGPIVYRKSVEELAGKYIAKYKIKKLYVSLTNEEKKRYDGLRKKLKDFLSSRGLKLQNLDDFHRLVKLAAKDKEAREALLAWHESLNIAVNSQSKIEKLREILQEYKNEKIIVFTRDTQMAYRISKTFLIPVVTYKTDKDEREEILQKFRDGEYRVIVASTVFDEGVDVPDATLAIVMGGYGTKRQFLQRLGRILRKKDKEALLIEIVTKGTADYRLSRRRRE

AfXPB = target: T3, AfXPB (Archaeoglobus fulgidus, UniProt O29889 1-452)
T3 sequence: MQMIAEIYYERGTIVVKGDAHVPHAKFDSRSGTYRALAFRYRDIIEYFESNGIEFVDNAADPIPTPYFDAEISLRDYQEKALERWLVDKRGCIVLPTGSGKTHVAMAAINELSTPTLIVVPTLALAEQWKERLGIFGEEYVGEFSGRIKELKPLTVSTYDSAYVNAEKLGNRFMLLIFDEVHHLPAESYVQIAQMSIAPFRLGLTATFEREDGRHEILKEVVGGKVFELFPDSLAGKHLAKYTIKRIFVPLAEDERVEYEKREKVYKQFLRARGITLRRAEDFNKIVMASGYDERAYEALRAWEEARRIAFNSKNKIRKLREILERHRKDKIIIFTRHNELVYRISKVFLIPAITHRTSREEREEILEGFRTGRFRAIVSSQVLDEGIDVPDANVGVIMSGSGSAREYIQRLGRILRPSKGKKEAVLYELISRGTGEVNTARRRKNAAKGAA

B1: 17mer well-matched duplex (WM) (dsDNA)
DNA 1: GAGATATAAAGCACGCA
DNA 2: TGCGTGCTTTATATCTC
modifications: strand 1 5' C6 thiol on gold electrode; strand 2 5'-terminal T is Nile Blue-modified (5-acrylate dU)
StXPB1
  Kd: 8 ± 2 nM
StXPB2
  Kd: 50 ± 10 nM
AfXPB
  Kd: 22 ± 8 nM
